# The RNAGym collection of RNA variant scans (doi:10.1073/pnas.2313332121)
# B1: TPR t1 (parent)
# chain: GACCAAUCUGCCCUCAGAGCUCGAGAACAUCUUCGGAUGCAGAGGAGGCAGGCUUCGGUGGCGCGAUAGCGCCAACGUCCUCAACCUCCAAUGCAUCCCACCACAUGAUGAUGCCUGAAGAGCCUUGGUUUUUUG
# Variants of: B1
# Assay: polymerase ribozyme fitness, log enrichment relative to wild type (log ratio); higher = more active; in vitro selection for triplet polymerase activity
# Outline: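 Only genotypes with ≥10 input reads and ≥1 read per output were kept after Illumina sequencing of input and output libraries. These libraries were PCR-built, transcribed mutants of each subunit of a heterodimeric triplet polymerase ribozyme, each put through one triplicate in vitro selection round with frozen incubation at −7 °C, gel excision of extended constructs, streptavidin-bead capture and RT-PCR. Fitness is a logarithmic ratio of genotype enrichment to wild-type enrichment, from inverse-variance-weighted replicate averages, with the logarithm in base 2.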
row,Variant,polymerase ribozyme fitness (log ratio)
1,C3U C8U G71U C88U G117C,-4.1
2,C3G U9G A43G G61A C114A U131A,-3
3,C3U C11A G120C,0.399
4,A2U C104A C124U U130A,-2.07
5,C3U C8A G25A C31G C70G U92A C94A C98G C99G G117U,-6.98
6,C3U A29U,-1.77
7,C3G C72U,-2.37
8,C3G C72A,-1.64
9,C3U G17C G61C G117U,-5.52
10,C3A C28U G57A G69U C82U,-3.79
11,C3G C88G U112G,-2.52
12,A2C A5C C114G C124A,-3.41
13,A2U G57C C82U C98U,-3.78
14,A2C G71U G93A U109A G120C,-6.66
15,C3A C56A G71A G127U,-3.57
16,A2U U9C C12A G51U C53A U55A G61U U78C G127U,-6.49
17,A2C G42A A46G G69U C115G,-4.92
18,A2U U131G,-2.07
19,C3U C11U C13G U116C,-4.66
20,C3U C56G A83U C85A,-3.16
21,A2G C115A,-0.495
22,A2U U32G G60U G69A U92A C114A U116A C124G,-6.22
23,C3A A5C C115A,1.15
24,C3U A16U,-2.53

row,Variant,polymerase ribozyme fitness (log ratio)
1,A2C G63U U129A,-2.77
2,C3U C72U C98A,-5.34
3,A2U C11U U21A,-1.96
4,A2C C70A U116C U126C U133A,-5.29
5,A2G C13G C123G,1.11
6,A2C C73U C76G U112G,-1.38
7,A2C G110C,-6.21
8,A2U C98U,-3.18
9,C3G G10A U106A,-2.9
10,C3A U7C G113C,-2.78
11,A2G G35C,-3.63
12,A2G C8U U87A C89U C123A,1.08
13,A2G C3G C31G A43U G60U C94U C114G,-7.19
14,C3U C8A A16U U33A G44A G120C,-6.36
15,C3G C115A,-2.96
16,A2U C49A,-2.86
17,A2G G44C C62A C97U C115U G135A,-5.32
18,A2C A66U,-2.86
19,C3G C73U A90C,-3.32
20,C3A G48U,-2.67
21,C3A C97A C114U,-5.53
22,A2G C62A C104U,-0.429
23,A2C G77U,-2.28
24,C3U C28A A41G C56U G120C,-5.25

row,Variant,polymerase ribozyme fitness (log ratio)
1,C3A G10U G69U C72U C101U,-1.82
2,C3U C40U A43G C53U C124U,-1.48
3,A2G C4G G47A G48A C123A,-3.22
4,A2U G51C G69A A121G U132C,-6.81
5,C3U C13U C34U C62U C85U,-5.63
6,C3A C22G A37G A111G,-4.63
7,C3A C12G A26U U30G G65C A121C U130C,-6.48
8,C3G G63C A68C A111U U112G G113A,-5.32
9,C3U C11A C13G A74G,-2.98
10,C3A C12G C56G C123U,-0.749
11,A2C A41U U78G,-3.61
12,C3A A5G C12A G63U A68G C115G G122A U130G,-6.94
13,A2U G23C G39A A50U G61C A91C G93C A111U,-6
14,A2C A27C G127C G135U,-6.34
15,A2U A43G G45A C72G A84G A111U,-6.25
16,C3A C8A C40G G61U A100C,-2.95
17,A2G U14C C70U,-2.68
18,A2U G63A C86A,-4.44
19,C3U A6U G57A G120C,0.153
20,C3G C13U G36U G45A C72U U125A G127U U131C,-2.84
21,A2U U32C C79A,-4.3
22,C3U C70U G110A,-2.71
23,C3U G17C G117U,-6.24
24,A2U A18G U32C G93U C124G U133G,-2.99

row,Variant,polymerase ribozyme fitness (log ratio)
1,C3A U59G U78A C89A G120U,-3.26
2,A2U A6G U92C A121C,-0.755
3,A2U G120A,-0.642
4,A2G G42A U54G C80A U112A,-6.02
5,C3U C12A C79G,-2.97
6,A2U G36U A41U U54G,-6.42
7,C3U C20U,-1.7
8,C3U G10A G44C C49A G120U,0.0361
9,A2G C4G C8G G47U U54C C72A,-2.53
10,C3U C13G A111C,-1.32
11,A2G A18G G19C A83C U92A C114A G128C,-3.26
12,A2U C11A G51A A66G G69U C98U,-4.43
13,C3A C40G,-2.2
14,C3U C12U C89G,-1.64
15,A2U C12G,-1.36
16,A2U C12A,-3.25
17,C3A G52U C64U,-2.19
18,C3U C11U U33A,-4.58
19,A2C A46C U55A C64G A84U,-7.2
20,A2U C12A U55G G61A C102A C104U,-4.56
21,C3A G44A A46U C53G C115U,-6.56
22,A2G C13U C53U C72G,-0.398
23,A2G C11A C49G G71U C85A U92C,-2.64
24,A2G C15U A37U C101G C104A,-5.07

row,Variant,polymerase ribozyme fitness (log ratio)
1,C3U C8G G45U U54A C72U U87C U130A,-1.62
2,A2G G57A C104A,-3.56
3,C3G U81C A111C G128A U133G,-4.61
4,C3U C12G C85U,-1.47
5,C3A A83C C97U G110A,-3.93
6,C3A A18G G19C A90U C123U U129G,-0.538
7,C3U C94U U106C,-0.635
8,C3G C22A C124G G128C,-3.09
9,C3U A90G,-0.86
10,A2U C4A A43G G47C A68G G113A C124U,-6.42
11,C3A C40A G93U G110U,-3.31
12,C3U C86G G113C,-3.51
13,A2G C28U G93C C124G U133G,-2.71
14,C3G G10C C34G G42U G69U C82G C102A U109A,-5.83
15,C3U C80G,-5.98
16,A2U C40A,-3.29
17,A2G C12U A75U A111G G113A,-1.23
18,A2U A5C C13U G48A G69A,-5.8
19,C3U C8A C11A U21A C124G,1.81
20,A2C G61A,-1.72
21,A2C C56G,-1.9
22,C3U G45A A105U,-3.3
23,A2G U54A G60C U106G,-2.29
24,A2U G60A C79U C80A A121G,-5.43

row,Variant,polymerase ribozyme fitness (log ratio)
1,C3G C34G C76G A91C U109G,-6.42
2,A2G G113A,-1.6
3,A2C C12A A66U C104U,-3.52
4,A2G U59G G122A U129C,-0.941
5,A2G A5G C20A A46C U112G G122U U129C,-5.3
6,C3A G44U,-3.37
7,A2G G93A,-0.719
8,A2G A18C C115A C123U,-1.44
9,A2C C73U,-1.65
10,A2U A37C,-3.02
11,A2G A43G,-2.05
12,A2U U59C C62G C94U C123A U125G,-6.19
13,C3G G93U C98U G128C,-2.57
14,C3G C86A,-3.1
15,A2C U38G C79G A121C,-2.95
16,A2U G65A C80G A84G C115U G117A G127U,-5.92
17,A2G C28U C70U G110U,-3.19
18,A2U G47A C123A,-2.56
19,A2G C97U G113U C114G,-3.04
20,A2C A121G,0.405
21,A2U A5C C62A G93C,-5.08
22,C3U C73A G135U,-1.52
23,A2C C13G G93U G120U,-2.23
24,A2U C114U,-4.35

row,Variant,polymerase ribozyme fitness (log ratio)
1,C3U C11G A24G C40U C62G,-3.32
2,A2G G52C G60U,0.0795
3,A2C G61A C82G,-2.65
4,A2C C13G G36A G63A,-5.73
5,A2C C72A C115G,-3.29
6,A2G C12U A29U G69C A75G C94A C123U,-4.95
7,C3A G39U,-2.46
8,C3A C11U C99U,-4.11
9,C3U C8A C73G G120C G135C,1.56
10,C3A G71C C79G A119G C123A,-1.16
11,C3A,-1.22
12,C3G,-1.58
13,C3U,-0.284
14,A2C C40U,-2.06
15,A2G C34A U55A C70G U112C,-5.23
16,A2C A5U G52U C62A,-4.11
17,C3U C11A G47A C72A G110U,-2.89
18,A2U U7A A46C G48A C82A G127C,-4.28
19,A2U U54A C72A C101G U129A U130A,-2.15
20,A2U A16G C72A,-3.41
21,A2G A5G U7G U21G A43C G69U C88A C101U U129A,-3.72
22,A2U C56A,-2.33
23,C3G A29U C49A G57U A121G,-2.13
